Drawing on patent publication US20110287023A1, this text covers IFN-α release (HMGB/CpG-A mediated enhanced TLR9 signaling) for one substance.

This assay addresses HMG1 purified from calf (bovine) thymus (bovine) (UniProt P10103). Kind of assay: cell-based or functional assay.

HMG1 purified from calf (bovine) thymus (bovine), sequence (P10103 2-215 limits assumed): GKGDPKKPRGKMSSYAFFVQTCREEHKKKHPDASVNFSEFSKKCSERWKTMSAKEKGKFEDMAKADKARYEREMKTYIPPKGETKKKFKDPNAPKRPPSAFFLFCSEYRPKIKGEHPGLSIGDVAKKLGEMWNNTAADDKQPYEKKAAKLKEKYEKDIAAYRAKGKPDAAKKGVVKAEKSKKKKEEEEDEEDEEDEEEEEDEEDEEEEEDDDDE

Consider “RAGE-Fc fusion protein (species not stated)”, for which the IFN-α release (HMGB/CpG-A mediated enhanced TLR9 signaling) is above 95%.
